The target in this assay is T1, human CLC-7 with C-terminal tandem twin Strep-tag (human, UniProt P51798 1-805).
T1 sequence: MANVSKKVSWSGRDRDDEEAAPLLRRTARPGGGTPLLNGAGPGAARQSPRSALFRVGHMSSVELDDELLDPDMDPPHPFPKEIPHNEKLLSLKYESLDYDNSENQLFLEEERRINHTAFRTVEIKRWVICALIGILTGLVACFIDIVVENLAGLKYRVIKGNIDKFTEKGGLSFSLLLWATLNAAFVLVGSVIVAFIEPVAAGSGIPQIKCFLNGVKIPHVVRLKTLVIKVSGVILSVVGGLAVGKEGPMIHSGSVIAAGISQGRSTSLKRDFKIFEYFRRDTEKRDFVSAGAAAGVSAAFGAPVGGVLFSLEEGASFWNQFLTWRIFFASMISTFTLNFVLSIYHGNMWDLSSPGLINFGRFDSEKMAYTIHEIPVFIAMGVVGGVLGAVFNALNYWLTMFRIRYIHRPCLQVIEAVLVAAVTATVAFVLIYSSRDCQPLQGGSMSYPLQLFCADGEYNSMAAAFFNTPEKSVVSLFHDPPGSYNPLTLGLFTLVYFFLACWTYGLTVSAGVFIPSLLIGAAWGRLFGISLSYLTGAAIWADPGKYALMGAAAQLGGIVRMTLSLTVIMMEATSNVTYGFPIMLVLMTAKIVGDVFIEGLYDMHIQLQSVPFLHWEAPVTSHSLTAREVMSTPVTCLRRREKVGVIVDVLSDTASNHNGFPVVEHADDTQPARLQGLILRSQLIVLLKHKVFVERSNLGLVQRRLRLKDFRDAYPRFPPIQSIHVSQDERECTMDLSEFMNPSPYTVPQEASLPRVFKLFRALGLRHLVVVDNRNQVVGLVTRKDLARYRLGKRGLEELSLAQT
Kind of assay: cryo-EM structure.

B1: human Ostm1, no tag (natural protein)
chain: ALPFGSSPHRVFHDLLSEQQLLEVEDLSLSLLQGGGLGPLSLPPDLPDLDPECRELLLDFANSSAELTGCLVRSARPVRLCQTCYPLFQQVVSKMDNISRAAGNTSESQSCARSLLMADRMQIVVILSEFFNTTWQEANCANCLTNNSEELSNSTVYFLNLFNHTLTCFEHNLQGNAHSLLQTKNYSEVCKNCREAYKTLSSLYSEMQKMNELENKAEPGTHLCIDVEDAMNITRKLWSRTFNCSVPCSDTVPVIAVSVFILFLPVVFYLSSFLHSEQKKRKLILPKRLKSSTSFANIQENSN
modifications: glycosylation (NAG) at Asn93, Asn128, Asn163, Asn184, Asn194, Asn216, Asn263
B1: the binding result was “binds”.

These data come from article PMC7423370 (Science Advances, 2020).
